The values below come from article PMC11671767, “GENOMES UNCOUPLED PROTEIN1 binds to plastid RNAs and promotes their maturation”.

Data set [1] deals with T1, GUN1-PS (Arabidopsis thaliana, UniProt Q9SIC9 232-918).
T1 sequence: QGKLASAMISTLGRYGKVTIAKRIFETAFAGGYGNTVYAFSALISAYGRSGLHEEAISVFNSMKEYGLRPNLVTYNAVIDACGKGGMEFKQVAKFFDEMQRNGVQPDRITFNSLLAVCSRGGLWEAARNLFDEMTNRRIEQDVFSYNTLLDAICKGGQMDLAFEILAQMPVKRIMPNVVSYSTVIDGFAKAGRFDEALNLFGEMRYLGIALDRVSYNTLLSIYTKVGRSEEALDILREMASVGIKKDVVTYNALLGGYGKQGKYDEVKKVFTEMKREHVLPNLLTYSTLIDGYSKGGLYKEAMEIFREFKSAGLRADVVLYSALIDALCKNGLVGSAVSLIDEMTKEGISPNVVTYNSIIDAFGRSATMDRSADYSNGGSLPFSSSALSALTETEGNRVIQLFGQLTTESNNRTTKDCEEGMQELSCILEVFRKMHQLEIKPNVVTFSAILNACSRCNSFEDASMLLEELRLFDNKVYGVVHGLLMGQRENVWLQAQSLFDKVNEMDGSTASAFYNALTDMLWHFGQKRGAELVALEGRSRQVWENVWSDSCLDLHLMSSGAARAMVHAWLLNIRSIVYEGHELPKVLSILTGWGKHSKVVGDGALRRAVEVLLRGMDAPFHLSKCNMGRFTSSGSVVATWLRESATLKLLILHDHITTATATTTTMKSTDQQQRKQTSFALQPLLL
Description: EMSA; binding at 37 C, gel at room temperature; no clear shift; 5x buffer (4 ul per reaction): 50 mM Tris-HCl pH 7.5, 50 mM NaCl, 200 mM KCl, 5 mM MgCl2, 5 mM EDTA, 5 mM DTT, 0.25 mg/ml BSA, 5% glycerol; 30 min at 23 C; 5% native PAGE, 0.5x TBE, 4 C. Particulars: protein: recombinant; tags: N-terminal TRX-His. In general terms: In EMSA bound probe runs differently from free probe, usually more slowly.

Data set [2] deals with T1, GUN1-PS. In words: EMSA; binding at 37 C, gel at room temperature; similar to RNA1; 5x buffer (4 ul per reaction): 50 mM Tris-HCl pH 7.5, 50 mM NaCl, 200 mM KCl, 5 mM MgCl2, 5 mM EDTA, 5 mM DTT, 0.25 mg/ml BSA, 5% glycerol; 30 min at 23 C; 5% native PAGE, 0.5x TBE, 4 C. Particulars: protein: recombinant; tags: N-terminal TRX-His.
The target of data set [3] is T1, GUN1-PS. Description: EMSA; 100-600 nM protein; 5x buffer (4 ul per reaction): 50 mM Tris-HCl pH 7.5, 50 mM NaCl, 200 mM KCl, 5 mM MgCl2, 5 mM EDTA, 5 mM DTT, 0.25 mg/ml BSA, 5% glycerol; 30 min at 23 C; 5% native PAGE, 0.5x TBE, 4 C. Particulars: protein: recombinant, tags: N-terminal TRX-His.
Data set [4] has as its target T1, GUN1-PS. Description: competition; vs Cy5-23S_104856, 5-50x; reduces the weak shift; 5x buffer (4 ul per reaction): 50 mM Tris-HCl pH 7.5, 50 mM NaCl, 200 mM KCl, 5 mM MgCl2, 5 mM EDTA, 5 mM DTT, 0.25 mg/ml BSA, 5% glycerol; 30 min at 23 C; 5% native PAGE, 0.5x TBE, 4 C. Particulars: protein: recombinant; tags: N-terminal TRX-His.
In data set [5] the target is T1, GUN1-PS. Description: competition; vs Cy5-trnG.1, 5-50x; 5x buffer (4 ul per reaction): 50 mM Tris-HCl pH 7.5, 50 mM NaCl, 200 mM KCl, 5 mM MgCl2, 5 mM EDTA, 5 mM DTT, 0.25 mg/ml BSA, 5% glycerol; 30 min at 23 C; 5% native PAGE, 0.5x TBE, 4 C. Conditions: protein: recombinant; tags: N-terminal TRX-His.
The target of data set [6] is T1, GUN1-PS. Description: competition; vs Cy5-ndhG, 5-50x; 5x buffer (4 ul per reaction): 50 mM Tris-HCl pH 7.5, 50 mM NaCl, 200 mM KCl, 5 mM MgCl2, 5 mM EDTA, 5 mM DTT, 0.25 mg/ml BSA, 5% glycerol; 30 min at 23 C; 5% native PAGE, 0.5x TBE, 4 C. Particulars: protein: recombinant; tags: N-terminal TRX-His; hairpin loop (predicted).

With GGAAAUCCGUCGAUAUCUCU (ssRNA) [Kim_RNA1 (BLRP)], the binding result in the data set with GUN1-PS [1] is given as “no binding”.
Turning to GGACCGAAUGAUCUAUCUCU (ssRNA) [Kim_RNA3 (BLRP mut)], in the data set with GUN1-PS [2], the binding result was “no binding”.
In the case of AUUUGGGAAUUUCUCCAUCCAUCAU (ssRNA) [trnG.1], the binding result with GUN1-PS [3] was “binds”.
As for AUUCUUAUGUGGCAGUCUCUAGUCCACUAGCUUUUG (ssRNA) [nonspecific competitor for 23S and ndhG], in the data set with GUN1-PS [4], the binding result is reported as “binds”.
As to AGAAAAAAAUCUGUUGAUAAAUGAA (ssRNA) [ndhG_118454], the binding result with GUN1-PS [3] (hairpin loop (predicted)) is on record as “binds”.
For the molecule AUUUGGGAAUUUCUCCAUCCAUCAU (ssRNA) [trnG.1 unlabeled], the binding result with GUN1-PS [5] is given as “binds”.
GCAUCUGAAUUUCAUAACCAAUCUCGAU (ssRNA) [nonspecific competitor for trnG.1]: the binding result in the data set with GUN1-PS [5] is reported as “no binding”.
Turning to AGAAAAAAAUCUGUUGAUAAAUGAA (ssRNA) [ndhG_118454 unlabeled], in the data set with GUN1-PS [6], the binding result is recorded as “binds”.
